This is an account of results in the supplement of paper PMC5998384.

In data set [1] the test system is HeLa Kyoto. The data set is described as follows: solubility in G1/S (NP-40 vs SDS abundance) (log2 ratio); higher = more soluble. The note with it: cell cycle stage: G1/S.
Data set [2] concerns HeLa Kyoto. Description: melting temperature (median over replicates), in situ; higher = more thermally stable.
In data set [3] the test system is HeLa Kyoto. The data set is described as follows: solubility change mitosis vs G1/S (difference of NP-40 vs SDS log2 ratios) (log2 ratio difference); higher = more soluble in mitosis.
In data set [4] the test system is HeLa Kyoto. Description: thermal stability score vs G1/S (z-score of summed log2 fold changes over temperatures); higher = more thermally stable than in G1/S.
Setting [5] is: cell cycle stage: early G1 (4.5 h after nocodazole release).
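For melting temperature (median over replicates), in situ in this document: HeLa Kyoto cells synchronized by double thymidine or nocodazole block, proteins quantified by TMT10plex mass spectrometry, three independent biological replicates.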
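For solubility change mitosis vs G1/S (difference of NP-40 vs SDS log2 ratios) in this document: synchronized HeLa Kyoto cells (double thymidine block for G1/S, nocodazole release for mitosis), protein amounts in NP-40 versus SDS lysates quantified by mass spectrometry, three biological replicates.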
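For solubility in G1/S (NP-40 vs SDS abundance) in this document: HeLa Kyoto cells arrested at G1/S by double thymidine block, proteins quantified by TMT10plex mass spectrometry in mild NP-40 versus SDS extracts, three biological replicates.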
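For thermal stability score vs G1/S (z-score of summed log2 fold changes over temperatures) in this document: synchronized HeLa Kyoto cells, proteins quantified by TMT10plex mass spectrometry, three biological replicates, mitosis taken 0.5 h after nocodazole release, G1/S directly after double thymidine block.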

For “MAAQVTLEDALSNVDLLEELPLPDQQPCIEPPPSSLLYQPNFNTNFEDRNAFVTGIARYIEQATVHSSMNEMLEEGQEYAVMLYTWRSCSRAIPQVKCNEQPNRVEIYEKTVEVLEPEVTKLMNFMYFQRNAIERFCGEVRRLCHAERRKDFVSEAYLITLGKFINMFAVLDELKNMKCSVKNDHSAYKRAAQFLRKMADPQSIQESQNLSMFLANHNKITQSLQQQLEVISGYEELLADIVNLCVDYYENRMYLTPSEKHMLLKVMGFGLYLMDGSVSNIYKLDAKKRINLSKIDKYFKQLQVVPLFGDMQIELARYIKTSAHYEENKSRWTCTSSGSSPQYNICEQMIQIREDHMRFISELARYSNSEVVTGSGRQEAQKTDAEYRKLFDLALQGLQLLSQWSAHVMEVYSWKLVHPTDKYSNKDCPDSAEEYERATRYNYTSEEKFALVEVIAMIKGLQVLMGRMESVFNHAIRHTVYAALQDFSQVTLREPLRQAIKKKKNVIQSVLQAIRKTVCDWETGHEPFNDPALRGEKDPKSGFDIKVPRRAVGPSSTQLYMVRTMLESLIADKSGSKKTLRSSLEGPTILDIEKFHRESFFYTHLINFSETLQQCCDLSQLWFREFFLELTMGRRIQFPIEMSMPWILTDHILETKEASMMEYVLYSLDLYNDSAHYALTRFNKQFLYDEIEAEVNLCFDQFVYKLADQIFAYYKVMAGSLLLDKRLRSECKNQGATIHLPPSNRYETLLKQRHVQLLGRSIDLNRLITQRVSAAMYKSLELAIGRFESEDLTSIVELDGLLEINRMTHKLLSRYLTLDGFDAMFREANHNVSAPYGRITLHVFWELNYDFLPNYCYNGSTNRFVRTVLPFSQEFQRDKQPNAQPQYLHGSKALNLAYSSIYGSYRNFVGPPHFQVICRLLGYQGIAVVMEELLKVVKSLLQGTILQYVKTLMEVMPKICRLPRHEYGSPGILEFFHHQLKDIVEYAELKTVCFQNLREVGNAILFCLLIEQSLSLEEVCDLLHAAPFQNILPRVHVKEGERLDAKMKRLESKYAPLHLVPLIERLGTPQQIAIAREGDLLTKERLCCGLSMFEVILTRIRSFLDDPIWRGPLPSNGVMHVDECVEFHRLWSAMQFVYCIPVGTHEFTVEQCFGDGLHWAGCMIIVLLGQQRRFAVLDFCYHLLKVQKHDGKDEIIKNVPLKKMVERIRKFQILNDEIITILDKYLKSGDGEGTPVEHVRCFQPPIHQSLASS [CYFIP1]”, in the data set with HeLa Kyoto [1], the “solubility in G1/S (log2)” value is -0.33. The melting temperature is 51.6 °C with HeLa Kyoto [2] (cell cycle stage: G1/S) and 51.1 °C with HeLa Kyoto [2] (cell cycle stage: mitosis). For the same substance, the “solubility change mitosis (log2)” value with HeLa Kyoto [3] is -0.136. Besides, the thermal stability score with HeLa Kyoto [4] (setting [5]) is -0.593; with HeLa Kyoto [4] (cell cycle stage: mitosis), -0.58.

“MASPPRHGPPGPASGDGPNLNNNNNNNNHSVRKCGYLRKQKHGHKRFFVLRGPGAGGDEATAGGGSAPQPPRLEYYESEKKWRSKAGAPKRVIALDCCLNINKRADAKHKYLIALYTKDEYFAVAAENEQEQEGWYRALTDLVSEGRAAAGDAPPAAAPAASCSASLPGALGGSAGAAGAEDSYGLVAPATAAYREVWQVNLKPKGLGQSKNLTGVYRLCLSARTIGFVKLNCEQPSVTLQLMNIRRCGHSDSFFFIEVGRSAVTGPGELWMQADDSVVAQNIHETILEAMKALKELFEFRPRSKSQSSGSSATHPISVPGARRHHHLVNLPPSQTGLVRRSRTDSLAATPPAAKCSSCRVRTASEGDGGAAAGAAAAGARPVSVAGSPLSPGPVRAPLSRSHTLSGGCGGRGSKVALLPAGGALQHSRSMSMPVAHSPPAATSPGSLSSSSGHGSGSYPPPPGPHPPLPHPLHHGPGQRPSSGSASASGSPSDPGFMSLDEYGSSPGDLRAFCSHRSNTPESIAETPPARDGGGGGEFYGYMTMDRPLSHCGRSYRRVSGDAAQDLDRGLRKRTYSLTTPARQRPVPQPSSASLDEYTLMRATFSGSAGRLCPSCPASSPKVAYHPYPEDYGDIEIGSHRSSSSNLGADDGYMPMTPGAALAGSGSGSCRSDDYMPMSPASVSAPKQILQPRAAAAAAAAVPSAGPAGPAPTSAAGRTFPASGGGYKASSPAESSPEDSGYMRMWCGSKLSMEHADGKLLPNGDYLNVSPSDAVTTGTPPDFFSAALHPGGEPLRGVPGCCYSSLPRSYKAPYTCGGDSDQYVLMSSPVGRILEEERLEPQATPGPSQAASAFGAGPTQPPHPVVPSPVRPSGGRPEGFLGQRGRAVRPTRLSLEGLPSLPSMHEYPLPPEPKSPGEYINIDFGEPGARLSPPAPPLLASAASSSSLLSASSPASSLGSGTPGTSSDSRQRSPLSDYMNLDFSSPKSPKPGAPSGHPVGSLDGLLSPEASSPYPPLPPRPSASPSSSLQPPPPPPAPGELYRLPPASAVATAQGPGAASSLSSDTGDNGDYTEMAFGVAATPPQPIAAPPKPEAARVASPTSGVKRLSLMEQVSGVEAFLQASQPPDPHRGAKVIRADPQGGRRRHSSETFSSTTTVTPVSPSFAHNPKRHNSASVENVSLRKSSEGGVGVGPGGGDEPPTSPRQLQPAPPLAPQGRPWTPGQPGGLVGCPGSGGSPMRRETSAGFQNGLNYIAIDVREEPGLPPQPQPPPPPLPQPGDKSSWGRTRSLGGLISAVGVGSTGGGCGGPGPGALPPANTYASIDFLSHHLKEATIVKE [IRS2]”: the “solubility in G1/S (log2)” value in the data set on HeLa Kyoto [1] is -0.000472. Also, the values for the melting temperature in the data set with HeLa Kyoto [2] (cell cycle stage: G1/S) and with HeLa Kyoto [2] (cell cycle stage: mitosis) were 50.4 °C and 50.3 °C, respectively. For the same substance, the “solubility change mitosis (log2)” value in the data set on HeLa Kyoto [3] was -0.0828. Also, the thermal stability score with HeLa Kyoto [4] (setting [5]) was -0.748; in the data set on HeLa Kyoto [4] (cell cycle stage: mitosis) it was 0.717.

Consider “MALSKSMHARNRYKDKPPDFAYLASKYPDFKQHVQINLNGRVSLNFKDPEAVRALTCTLLREDFGLSIDIPLERLIPTVPLRLNYIHWVEDLIGHQDSDKSTLRRGIDIGTGASCIYPLLGATLNGWYFLATEVDDMCFNYAKKNVEQNNLSDLIKVVKVPQKTLLMDALKEESEIIYDFCMCNPPFFANQLEAKGVNSRNPRRPPPSSVNTGGITEIMAEGGELEFVKRIIHDSLQLKKRLRWYSCMLGKKCSLAPLKEELRIQGVPKVTYTEFCQGRTMRWALAWSFYDDVTVPSPPSKRRKLEKPRKPITFVVLASVMKELSLKASPLRSETAEGIVVVTTWIEKILTDLKVQHKRVPCGKEEVSLFLTAIENSWIHLRRKKRERVRQLREVPRAPEDVIQALEEKKPTPKESGNSQELARGPQERTPCGPALREGEAAAVEGPCPSQESLSQEENPEPTEDERSEEKGGVEVLESCQGSSNGAQDQEASEQFGSPVAERGKRLPGVAGQYLFKCLINVKKEVDDALVEMHWVEGQNRDLMNQLCTYIRNQIFRLVAVN [METTL16]”, for which the “solubility in G1/S (log2)” value in the data set on HeLa Kyoto [1] amounted to 0.161. Also, the melting temperature in the data set with HeLa Kyoto [2] (cell cycle stage: G1/S) worked out at 50.2 °C; in the data set with HeLa Kyoto [2] (cell cycle stage: mitosis), 50.8 °C. Moreover, the “solubility change mitosis (log2)” value with HeLa Kyoto [3] is -0.2. The thermal stability score in the data set with HeLa Kyoto [4] (setting [5]) is 1.61; in the data set with HeLa Kyoto [4] (cell cycle stage: mitosis), 2.17.

For “MFSSVAHLARANPFNTPHLQLVHDGLGDLRSSSPGPTGQPRRPRNLAAAAVEEQYSCDYGSGRFFILCGLGGIISCGTTHTALVPLDLVKCRMQVDPQKYKGIFNGFSVTLKEDGVRGLAKGWAPTFLGYSMQGLCKFGFYEVFKVLYSNMLGEENTYLWRTSLYLAASASAEFFADIALAPMEAAKVRIQTQPGYANTLRDAAPKMYKEEGLKAFYKGVAPLWMRQIPYTMMKFACFERTVEALYKFVVPKPRSECSKPEQLVVTFVAGYIAGVFCAIVSHPADSVVSVLNKEKGSSASLVLKRLGFKGVWKGLFARIIMIGTLTALQWFIYDSVKVYFRLPRPPPPEMPESLKKKLGLTQ [SLC25A3]”, the “solubility in G1/S (log2)” value in the data set on HeLa Kyoto [1] is -0.0671. Besides, the melting temperature came out at 56.3 °C with HeLa Kyoto [2] (cell cycle stage: G1/S) and 56 °C in the data set on HeLa Kyoto [2] (cell cycle stage: mitosis). The “solubility change mitosis (log2)” value in the data set on HeLa Kyoto [3] was -0.0903. Further, the thermal stability score is -1.42 in the data set on HeLa Kyoto [4] (setting [5]) and -3.39 with HeLa Kyoto [4] (cell cycle stage: mitosis).

Turning to “MAWVLKMDEVIESGLVHDFDASLSGIGQELGAGAYSMSDVLALPIFKQEDSSLPLDGETEHPPFQYVMCAATSPAVKLHDETLTYLNQGQSYEIRMLDNRKMGDMPEINGKLVKSIIRVVFHDRRLQYTEHQQLEGWKWNRPGDRLLDLDIPMSVGIIDTRTNPSQLNAVEFLWDPAKRTSAFIQVHCISTEFTPRKHGGEKGVPFRIQVDTFKQNENGEYTDHLHSASCQIKVFKPKGADRKQKTDREKMEKRTAHEKEKYQPSYDTTILTEMRLEPIIEDAVEHEQKKSSKRTLPADYGDSLAKRGSCSPWPDAPTAYVNNSPSPAPTFTSPQQSTCSVPDSNSSSPNHQGDGASQTSGEQIQPSATIQETQQWLLKNRFSSYTRLFSNFSGADLLKLTKEDLVQICGAADGIRLYNSLKSRSVRPRLTIYVCREQPSSTVLQGQQQAASSASENGSGAPYVYHAIYLEEMIASEVARKLALVFNIPLHQINQVYRQGPTGIHILVSDQMVQNFQDESCFLFSTVKAESSDGIHIILK [UBP1]”, in the data set with HeLa Kyoto [1], the “solubility in G1/S (log2)” value is 0.06. Further, the melting temperature in the data set with HeLa Kyoto [2] (cell cycle stage: G1/S) was 50.5 °C; in the data set on HeLa Kyoto [2] (cell cycle stage: mitosis) it was 48.3 °C. Further, the “solubility change mitosis (log2)” value in the data set on HeLa Kyoto [3] is 0.0235. Besides, the thermal stability score with HeLa Kyoto [4] (setting [5]) was -0.25; in the data set with HeLa Kyoto [4] (cell cycle stage: mitosis) it was -0.0933.

As for NIFK, in the data set on HeLa Kyoto [1], the “solubility in G1/S (log2)” value is -1.88. Also, the melting temperature was determined as 51.7 °C in the data set on HeLa Kyoto [2] (cell cycle stage: G1/S) and 52.8 °C with HeLa Kyoto [2] (cell cycle stage: mitosis). Besides, the “solubility change mitosis (log2)” value in the data set with HeLa Kyoto [3] was determined as 0.784. Also, the thermal stability score in the data set on HeLa Kyoto [4] (setting [5]) was determined as 4.37; with HeLa Kyoto [4] (cell cycle stage: mitosis), 4.42.

On to “MSDDDSRASTSSSSSSSSNQQTEKETNTPKKKESKVSMSKNSKLLSTSAKRIQKELADITLDPPPNCSAGPKGDNIYEWRSTILGPPGSVYEGGVFFLDITFTPEYPFKPPKVTFRTRIYHCNINSQGVICLDILKDNWSPALTISKVLLSICSLLTDCNPADPLVGSIATQYMTNRAEHDRMARQWTKRYAT [UBE2E1]”, for which the “solubility in G1/S (log2)” value in the data set with HeLa Kyoto [1] is 0.338. Besides, the melting temperature in the data set with HeLa Kyoto [2] (cell cycle stage: G1/S) came to 48.5 °C; in the data set on HeLa Kyoto [2] (cell cycle stage: mitosis), 49.5 °C. The “solubility change mitosis (log2)” value with HeLa Kyoto [3] was -0.151. The results for the thermal stability score with HeLa Kyoto [4] (setting [5]) and with HeLa Kyoto [4] (cell cycle stage: mitosis) were 1.73 and 3.2, respectively.
